In the data set the target is TDG (recombinant murine TDG) (Mus musculus, UniProt P56581 1-421). Nature of the data set: competition; competes TDG-Sra1 and TDG-Neat1 complexes; higher affinity than lncRNA; BER buffer: 50 mM HEPES pH 8.0, 70 mM KCl, 0.5 mg/mL BSA, 7 mM MgCl2, 1 mM DTT, RNase inhibitor; RT, 15 min (buffer stated for lncRNA EMSA; 60 bp EMSA: 2 µM TDG, 2 µM substrate, RT 15 min). To be noted: protein: recombinant; blunt, one G·U mismatch. Background: Mobility shift assays separate free from complexed probe on a gel.
Chain of TDG (recombinant murine TDG) (P56581 whole entry): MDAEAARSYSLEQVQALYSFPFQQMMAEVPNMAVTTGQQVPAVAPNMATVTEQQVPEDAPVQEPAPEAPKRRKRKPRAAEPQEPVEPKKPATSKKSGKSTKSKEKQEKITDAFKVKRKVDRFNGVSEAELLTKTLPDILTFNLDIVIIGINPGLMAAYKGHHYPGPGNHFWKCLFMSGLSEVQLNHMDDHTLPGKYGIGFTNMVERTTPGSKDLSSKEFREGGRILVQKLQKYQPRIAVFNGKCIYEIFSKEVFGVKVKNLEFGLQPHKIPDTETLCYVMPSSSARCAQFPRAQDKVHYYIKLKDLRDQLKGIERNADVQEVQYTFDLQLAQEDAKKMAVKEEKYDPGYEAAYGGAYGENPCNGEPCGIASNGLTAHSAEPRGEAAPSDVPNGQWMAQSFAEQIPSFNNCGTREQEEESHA

B1: Subs60 G·U (unlabeled competitor) (dsDNA)
DNA 1: TAGACATTGCCCTCGAGGTACCATGGATCCGATGTCGACCTCAAACCTAGACGAATTCCG
DNA 2: CGGAATTCGTCTAGGTTTGAGGTUGACATCGGATCCATGGTACCTCGAGGGCAATGTCTA
modifications: dU at position 24 of strand 2
As for B1, the binding result was “binds”.

The values above are taken from paper PMC12748351, “The TDG protein environment connects active DNA demethylation with chromatin and RNA biology”.
